Results reported in patent publication US20230250154A1.

Target: Protease Mixtures
Test: cell-based or functional assay

- Protease Inhibition (% of WT); Protease Mixtures, IGD Substrate: 140 % of WT
B1: Variant A2M, bait region SEQ ID NO 137, P01023 24-1474 (protein)
chain: SVSGKPQYMVLVPSLLHTETTEKGCVLLSYLNETVTVSASLESVRGNRSLFTDLEAENDVLHCVAFAVPKSSSNEEVMFLTVQVKGPTQEFKKRTTVMVKNEDSLVFVQTDKSIYKPGQTVKFRVVSMDENFHPLNELIPLVYIQDPKGNRIAQWQSFQLEGGLKQFSFPLSSEPFQGSYKVVVQKKSGGRTEHPFTVEEFVLPKFEVQVTVPKIITILEEEMNVSVCGLYTYGKPVPGHVTVSICRKYSDASDCHGEDSQAFCEKFSGQLNSHGCFYQQVKTKVFQLKRKEYEMKLHTEAQIQEEGTVVELTGRQSSEITRTITKLSFVKVDSHFRQGIPFFGQVRLVDGKGVPIPNKVIFIRGNEANYYSNATTDEHGLVQFSINTTNVMGTSLTVRVNYKDRSPCYGYQWVSEEHEEAHHTAYLVFSPSKSFVHLEPMSHELPCGHTQTVQAHYILNGGTLLGLKKLSFYYLIMAKGGIVRTGTHGLLVKQEDMKGHFSISIPVKSDIAPVARLLIYAVLPTGDVIGDSAKYDVENCLANKVDLSFSPSQSLPASHAHLRVTAAPQSVCALRAVDQSVLLMKPDAELSASSVYNLLPEKDLTGFPGPLNDQDDEDCINRHNVYINGITYTPVSSTNEKDMYSFLEDMGLKAFTNSKIRKPKMCPQLEQYEMHGPSEDLVVQIKEEEGLGSIPENFFGVSELEGRGSVEEPHTKLRKYFPETWIWDLVVVNSAGVAEVGVTVPDTITEWKAGAFCLSEDAGLGISSTASLRAFQPFFVELTMPYSVIRGEAFTLKATVLNYLPKCIRVSVQLEASPAFLAVPVEKEQAPHCICANGRQTVSWAVTPKSLGNVNFTVSAEALESQELCGTEVPSVPEHGRKDTVIKPLLVEPEGLEKETTFNSLLCPSGGEVSEELSLKLPPNVVEESARASVSVLGDILGSAMQNTQNLLQMPYGCGEQNMVLFAPNIYVLDYLNETQQLTPEIKSKAIGYLNTGYQRQLNYKHYDGSYSTFGERYGRNQGNTWLTAFVLKTFAQARAYIFIDEAHITQALIWLSQRQKDNGCFRSSGSLLNNAIKGGVEDEVTLSAYITIALLEIPLTVTHPVVRNALFCLESAWKTAQEGDHGSHVYTKALLAYAFALAGNQDKRKEVLKSLNEEAVKKDNSVHWERPQKPKAPVGHFYEPQAPSAEVEMTSYVLLAYLTAQPAPTSEDLTSATNIVKWITKQQNAQGGFSSTQDTVVALHALSKYGAATFTRTGKAAQVTIQSSGTFSSKFQVDNNNRLLLQQVSLPELPGEYSMKVTGEGCVYLQTSLKYNILPEKEEFPFALGVQTLPQTCDEPKAHTSFQISLSVSYTGSRSASNMAIVDVKMVSGFIPLKPTVKMLERSNHVSRTEVSSNHVLIYLDKVSNQTLSLFFTVLQDVPVRDLKPAIVKVYDYYETDEFAIAEYNAPCSKDLGNADYKDDDDKGASHHHHHH
